Assay results reported in publication PMC3695229 (2013).
* marks the point of attachment. Biotin = O=C1N[C@H]2[C@H](CS[C@H]2CCCCC(=O)*)N1

Biological target: T1, TGF-β2 (Homo sapiens, UniProt P61812)
T1 chain: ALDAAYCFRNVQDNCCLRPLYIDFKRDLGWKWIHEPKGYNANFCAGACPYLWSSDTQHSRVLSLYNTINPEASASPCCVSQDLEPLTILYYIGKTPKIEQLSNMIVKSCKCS
Assay: SPR

Question: Which Kd does the source give for Biotin-DATMIWTMMQNKKTFTK-NH2 [P4-mZP 732-748] here?
Answer: ~190 nM

Question: How did the Kd turn out when MIWTMMQNKKTFTKP [P1-mZP ZP-C peptide] was run?
Answer: 8 nM

Question: Biotin-DASIIWAMMQNKKTFTK-NH2 [P5-hZP 734-750] was tested. Which Kd did it give?
Answer: ~350 nM
